# Read-outs that look alike come from different tables or passages of the source.
# B1: JML-1 biotinylated IgG1 (antibody, V domains shown)
# VH: KVQLLESGGGLVQPGRSLRLSCAASGFTFDDYGMHWVRQAPGKGLEWVSGISWNSGSIGYADSVKGRFTISRDNSKNTLYLQMNSLRAEDTAVYYCARGGQTIDIWGQGTMVTVSS
# VL: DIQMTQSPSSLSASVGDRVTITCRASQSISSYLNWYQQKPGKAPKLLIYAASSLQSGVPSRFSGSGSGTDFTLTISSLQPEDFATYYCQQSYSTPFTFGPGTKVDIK
# modifications: Biotinylated IgG1; the biotin sites are not stated and are not carried in the letters.
# B2: RC-1 Fab (Fab, V domains shown)
# VH: EVQLVESGGGLVQPGRSLRLSCAASGFTFSSYGMHWVRQAPGKGLEWVAVISYDGSNKYYADSVKGRFTISRDNSKNTLYLQMNSLRAEDTAVYYCANYGMDVWGKGTTVTVSS
# VL: not shown
# notes: Human Fab (kappa) from the post-alloHSCT phage library, expressed in E. coli
# B3: RC-1/V9 aDART-Fc (bispecific antibody)
# chain 1: not shown
# chain 2: DIQMTQSPSSLSASVGDRVTITCRASQDIRNYLNWYQQKPGKAPKLLIYYTSRLESGVPSRFSGSGSGTDYTLTISSLQPEDFATYYCQQGNTLPWTFGQGTKVEIKGGGGSGGGGEVQLVESGGGLVQPGRSLRLSCAASGFTFSSYGMHWVRQAPGKGLEWVAVISYDGSNKYYADSVKGRFTISRDNSKNTLYLQMNSLRAEDTAVYYCANYGMDVWGKGTTVTVSSASTKGKVAACKEKVAALKEKVAALKEKVAALKE
# chain 3: DKTHTCPPCPAPEAAGGPSVFLFPPKPKDTLMISRTPEVTCVVVDVSHEDPEVKFNWYVDGVEVHNAKTKPREEQYNSTYRVVSVLTVLHQDWLNGKEYKCKVSNKALGAPIEKTISKAKGQPREPQVCTLPPSRDELTKNQVSLSCAVKGFYPSDIAVEWESNGQPENNYKTTPPVLDSDGSFFLVSKLTVDKSRWQQGNVFSCSVMHEALHNRFTQKSLSLSPGA
# notes: Three-chain asymmetric DART-Fc; Chain 1 is RC-1vk-G3SG4-V9vh-ASTK-E-coil-G3-Fc knobs, chain 2 is V9vk-G4SG4-RC-1vh-ASTK-K-coil, and chain 3 is Fc holes; also called Siglec-6xCD3 T-biAb in aDART-Fc format
# B4: JML-1/V9 scFv-Fc (bispecific antibody)
# chain 1: not shown
# chain 2: EVQLVESGGGLVQPGGSLRLSCAASGYSFTGYTMNWVRQAPGKGLEWVALINPYKGVSTYNQKFKDRFTISVDKSKNTAYLQMNSLRAEDTAVYYCARSGYYGDSDWYFDVWGQGTLVTVSSGGGGSGGGGSGGGGSDIQMTQSPSSLSASVGDRVTITCRASQDIRNYLNWYQQKPGKAPKLLIYYTSRLESGVPSRFSGSGSGTDYTLTISSLQPEDFATYYCQQGNTLPWTFGQGTKVEIKEPKSSDKTHTCPPCPAPELLGGPSVFLFPPKPKDTLMISRTPEVTCVVVDVSHEDPEVKFNWYVDGVEVHNAKTKPREEQYASTYRVVSVLTVLHQDWLNGKEYKCKVSNKALPAPIEKTISKAKGQPREPQVCTLPPSRDELTKNQVSLSCAVKGFYPSDIAVEWESNGQPENNYKTTPPVLDSDGSFFLVSKLTVDKSRWQQGNVFSCSVMHEALHNHYTQKSLSLSPGA
# notes: Knobs-into-holes heterodimer of the JML-1 scFv-Fc knob arm and the shared anti-CD3 V9 scFv-Fc hole arm; Both arms carry N297A; also called JML-1 clone T-biAb
# B5: RC-1/V9 scFv-Fc (bispecific antibody)
# chain 1: not shown
# chain 2: B4 chain 2
# notes: Knobs-into-holes heterodimer of the RC-1 scFv-Fc knob arm and the shared anti-CD3 V9 scFv-Fc hole arm; also called RC-1 clone in scFv-Fc format
# B6: V9/RC-1 sDART-Fc (bispecific antibody)
# chain 1: DIQMTQSPSSLSASVGDRVTITCRASQDIRNYLNWYQQKPGKAPKLLIYYTSRLESGVPSRFSGSGSGTDYTLTISSLQPEDFATYYCQQGNTLPWTFGQGTKVEIKGGGSGGGGEVQLVESGGGLVQPGRSLRLSCAASGFTFSSYGMHWVRQAPGKGLEWVAVISYDGSNKYYADSVKGRFTISRDNSKNTLYLQMNSLRAEDTAVYYCANYGMDVWGKGTTVTVSSGCPPCPAPEAAGGPSVFLFPPKPKDTLMISRTPEVTCVVVDVSHEDPEVKFNWYVDGVEVHNAKTKPREEQYNSTYRVVSVLTVLHQDWLNGKEYKCKVSNKALGAPIEKTISKAKGQPREPQVCTLPPSRDELTKNQVSLSCAVKGFYPSDIAVEWESNGQPENNYKTTPPVLDSDGSFFLVSKLTVDKSRWQQGNVFSCSVMHEALHNRFTQKSLSLSPGA
# chain 2: not shown
# notes: Two-chain symmetric DART-Fc
# B7: RC-2 Fab (Fab, V domains shown)
# VH: EVQLLESGGGVVQPGRSLRLSCAASGFTFSSYGMHWVRQAPGKGLEWVAVISYDGSNKHYADSVKGRFTISRDNSKNTLYLQMNSLRAEDTAVYYCARGGQTIDIWGQGTMVTVSS
# VL: not shown
# notes: Human Fab (kappa), expressed in E. coli
# B8: ARN-1 Fab (Fab, V domains shown)
# VH: EVQLVQSGGGVVQPGRSLTLSCAAFGFTFSTYTMHWVRQAPGKGLEWVAVISYDEGFKYYADSVKGRFTISRDISKNTLYLQMNSLRTEDTAVYYCAREASAFDIWGQGTMVTVSS
# VL: SYVLTQPPLVSVSPGQTARITCSGENWGQKYASWYQQKPGQSPMLIIYEDTKRPSEIPERFSGSNSGSTVTLTISGTQPMDEADYYCQAWDDSTGGVFGTGTKVTVL
# notes: Human Fab from a naive human Fab library
# Legend:
# [1] = target: T1, human Siglec-6 on the cell surface (U937, MEC1-002, MEC1-hS6, primary CLL cells) (human, UniProt O43699 27-453); assay: flow cytometry of whole PBMC with biotinylated JML-1 IgG1, normalised to an isotype control
# T1 construct: whole, on cells; Endogenous on U937, MEC1-002 and CLL cells; stably transfected in MEC1-hS6
# Method: (§1) Flow cytometry: Fabs were used to stain cells at a concentration of 2 μg/mL, unless otherwise noted. […] Samples were analyzed on either an Accuri C6 Plus or a LSRII flow cytometer (both from BD Biosciences).
# [2] = target: T2, recombinant human Siglec-6 human IgG1-Fc fusion protein (human, UniProt O43699 27-347); assay: SPR, immobilized hS6-Fc, soluble Fab
# T2 construct: range 27-347; The methods describe the in-house construct as the Siglec-6 ectodomain at the C-terminus of the Fc (Fc-Siglec-6); The text uses hS6-Fc, Siglec-6-Fc and Fc-Siglec-6 for the SPR and ELISA antigen without telling the orientations apart; also called hS6-Fc; Fc-hS6; not shown: human IgG1 Fc, aa 99-329
# [3] = target: T2, recombinant human Siglec-6 human …; assay: SPR, Siglec-6-Fc captured, soluble Fab injected
# Method: (§2) Fab kinetics were determined by capturing Siglec-6-Fc (5-10 μg/mL) in HBS-EP+ buffer (Cytiva) and injecting titrated. […] Biacore evaluation software was used to calculate kₒₙ, koff, and Kd.
# [4] = target: T3, Siglec-2 (CD22) (Homo sapiens, UniProt P20273); assay: ELISA, siglec-Fc fusion protein coated directly, anti-human Fab detection, absorbance 405-570 nm
# T3 construct: Fc fusion protein; member of the siglec panel (group m8); also called human Siglec-2-Fc fusion protein
# [5] = target: T4, Siglec-8 (Homo sapiens, UniProt Q9NYZ4); assay: as above
# T4 construct: Fc fusion protein; member of the siglec panel (group m8); also called human Siglec-8-Fc fusion protein
# [6] = target: human CD33 (Siglec-3) (human, UniProt P20138 18-259, limits assumed); assay: as above
# [7] = target: T5, Siglec-9 (Homo sapiens, UniProt Q9Y336); assay: ELISA, siglec-Fc fusion protein coated directly (50 ng), anti-human F(ab')2-HRP detection, absorbance 405-570 nm
# T5 construct: Fc fusion protein; member of the siglec panel (group m8); also called human Siglec-9-Fc fusion protein
# [8] = target: T6, rhesus macaque (Macaca mulatta) Siglec-6 Fc fusion protein (human; Macaca mulatta (rhesus macaque), UniProt A0A1D5QH63 16-333); assay: as above
# T6 construct: range 16-333; it is not the assay construct; also called rhesus Siglec-6; macaque Siglec-6; not shown: human IgG1 Fc, aa 99-329
# [9] = target: T1, human Siglec-6 on the cell surface …; assay: cell-based or functional assay
# [10] = target: T1, human Siglec-6 on the cell surface …; assay: cell-based or functional assay; remark: listed apart in the source
# [11] = target: T1, human Siglec-6 on the cell surface …; assay: flow cytometry titration on MEC1-hS6 cells, apparent Kd; aDART-Fc format, RC-1 clone
# Method: (§3) To determine whether T-biAb format affected the affinity to Siglec-6 or CD3 on the cell surface, T-biAbs were titrated and used to stain cells for flow cytometry (FIG. 17a).
# as §1
# [12] = target: T7, Siglec-6 VC28-235-His6 (human, UniProt O43699 28-235); assay: SPR, T-biAb immobilised via the Fc domain, soluble Siglec-6 (aa 28-235-His6) injected
# T7 construct: It was deglycosylated with PNGase F for HDX-MS; also called soluble Siglec-6 (aa 28-235-His6); Siglec-6 ectodomain fragment
# Method: as §2
# [13] = target: T8, CD3 on human T cells (human, UniProt P07766 23-207); assay: flow cytometry titration on primary human T cells, Alexa Fluor 647 anti-human Fc secondary antibody, percent biAb+ cells
# T8 construct: whole, on cells; CD3 is a complex; also called CD3+ cells
# Method: as §3, §1
# [14] = target: T1, human Siglec-6 on the cell surface …; assay: cell-based or functional assay; remark: listed apart in the source
# [15] = target: T1, human Siglec-6 on the cell surface …; assay: flow cytometry titration on MEC1-hS6 cells, apparent Kd; scFv-Fc format, JML-1 clone
# Method: as §3, §1
# [16] = target: T8, CD3 on human T cells; assay: flow cytometry titration on primary human T cells
# Method: as §3, §1
# [17] = target: T1, human Siglec-6 on the cell surface …; assay: flow cytometry titration on MEC1-hS6 cells, apparent Kd; scFv-Fc format, RC-1 clone
# Method: as §3, §1
# [18] = target: T1, human Siglec-6 on the cell surface …; assay: cell-based or functional assay; remark: listed apart in the source
# [19] = target: T2, recombinant human Siglec-6 human …; assay: SPR, monovalent Fab on Siglec-6-Fc fusion protein
# Method: as §2
# [20] = target: T5, Siglec-9; assay: ELISA, siglec-Fc fusion protein coated directly, anti-human Fab detection, absorbance 405-570 nm
# T2 sequence (O43699 27-347 limits assumed): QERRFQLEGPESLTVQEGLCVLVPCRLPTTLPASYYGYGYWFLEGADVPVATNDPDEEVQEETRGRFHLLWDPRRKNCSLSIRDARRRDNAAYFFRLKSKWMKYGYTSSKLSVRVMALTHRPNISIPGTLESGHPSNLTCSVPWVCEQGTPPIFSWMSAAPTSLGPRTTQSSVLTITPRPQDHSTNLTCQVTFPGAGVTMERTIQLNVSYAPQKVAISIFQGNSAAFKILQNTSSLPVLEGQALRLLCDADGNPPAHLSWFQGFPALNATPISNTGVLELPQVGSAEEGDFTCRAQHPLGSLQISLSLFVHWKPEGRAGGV
# T7 sequence (O43699 other isoform, or with tags, fused parts or gaps limits assumed): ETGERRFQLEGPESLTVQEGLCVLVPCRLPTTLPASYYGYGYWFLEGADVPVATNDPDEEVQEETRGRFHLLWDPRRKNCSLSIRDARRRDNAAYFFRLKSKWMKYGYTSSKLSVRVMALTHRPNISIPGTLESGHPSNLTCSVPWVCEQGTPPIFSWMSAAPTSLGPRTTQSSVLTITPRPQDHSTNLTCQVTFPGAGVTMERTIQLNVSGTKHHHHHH
# T8 sequence (P07766 23-207): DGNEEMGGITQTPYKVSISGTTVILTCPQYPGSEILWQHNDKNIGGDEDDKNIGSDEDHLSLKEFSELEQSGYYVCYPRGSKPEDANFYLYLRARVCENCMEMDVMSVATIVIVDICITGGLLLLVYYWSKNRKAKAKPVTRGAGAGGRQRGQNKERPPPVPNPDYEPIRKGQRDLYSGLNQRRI
# T1 sequence (O43699 27-453): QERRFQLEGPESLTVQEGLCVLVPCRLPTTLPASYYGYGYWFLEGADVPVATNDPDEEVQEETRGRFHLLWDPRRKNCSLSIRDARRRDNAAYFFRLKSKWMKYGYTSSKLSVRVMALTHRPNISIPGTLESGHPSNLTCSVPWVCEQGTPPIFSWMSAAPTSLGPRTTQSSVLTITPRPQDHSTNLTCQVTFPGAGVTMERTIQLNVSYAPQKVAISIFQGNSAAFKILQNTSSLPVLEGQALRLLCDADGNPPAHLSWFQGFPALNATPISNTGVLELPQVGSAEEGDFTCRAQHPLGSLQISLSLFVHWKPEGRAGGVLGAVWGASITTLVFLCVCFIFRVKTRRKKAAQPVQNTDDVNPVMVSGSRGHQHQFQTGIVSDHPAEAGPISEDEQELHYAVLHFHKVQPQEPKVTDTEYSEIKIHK
# T4 sequence (Q9NYZ4 17-363 limits assumed): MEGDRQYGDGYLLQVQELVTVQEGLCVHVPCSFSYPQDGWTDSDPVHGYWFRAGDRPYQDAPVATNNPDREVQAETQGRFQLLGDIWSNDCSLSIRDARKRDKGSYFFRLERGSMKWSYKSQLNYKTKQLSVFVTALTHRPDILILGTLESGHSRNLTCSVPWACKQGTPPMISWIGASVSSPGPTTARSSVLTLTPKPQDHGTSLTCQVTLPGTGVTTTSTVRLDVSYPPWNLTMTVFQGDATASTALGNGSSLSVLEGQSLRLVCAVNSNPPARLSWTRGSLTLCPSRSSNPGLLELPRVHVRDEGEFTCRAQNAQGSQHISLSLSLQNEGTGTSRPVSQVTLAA
# T5 sequence (Q9Y336 18-348 limits assumed): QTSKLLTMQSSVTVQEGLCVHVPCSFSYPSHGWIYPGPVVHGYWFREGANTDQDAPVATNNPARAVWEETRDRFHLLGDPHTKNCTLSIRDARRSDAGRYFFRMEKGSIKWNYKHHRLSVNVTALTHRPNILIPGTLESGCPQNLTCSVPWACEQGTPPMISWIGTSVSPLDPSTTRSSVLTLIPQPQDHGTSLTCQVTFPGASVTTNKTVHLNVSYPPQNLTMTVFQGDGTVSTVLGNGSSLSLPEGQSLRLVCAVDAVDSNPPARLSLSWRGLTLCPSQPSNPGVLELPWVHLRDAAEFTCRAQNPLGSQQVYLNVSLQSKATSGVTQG
# human CD33 (Siglec-3), sequence (P20138 18-259 limits assumed): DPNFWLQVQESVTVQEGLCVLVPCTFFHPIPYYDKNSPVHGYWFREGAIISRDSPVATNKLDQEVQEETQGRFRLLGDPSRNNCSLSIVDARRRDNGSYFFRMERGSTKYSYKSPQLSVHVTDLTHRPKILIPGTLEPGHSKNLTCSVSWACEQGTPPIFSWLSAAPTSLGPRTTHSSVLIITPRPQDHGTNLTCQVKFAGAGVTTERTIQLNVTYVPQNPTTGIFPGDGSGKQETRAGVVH
# T6 sequence (A0A1D5QH63 entry or part of it): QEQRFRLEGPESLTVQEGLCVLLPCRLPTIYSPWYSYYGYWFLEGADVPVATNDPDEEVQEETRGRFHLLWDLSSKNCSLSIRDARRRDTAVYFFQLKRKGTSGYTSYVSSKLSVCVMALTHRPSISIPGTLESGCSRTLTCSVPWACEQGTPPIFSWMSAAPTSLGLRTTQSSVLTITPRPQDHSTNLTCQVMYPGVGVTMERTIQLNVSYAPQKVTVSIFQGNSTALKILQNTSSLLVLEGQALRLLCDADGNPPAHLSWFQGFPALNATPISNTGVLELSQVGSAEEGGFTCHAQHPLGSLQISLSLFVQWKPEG
binder,measurement,setting,value
B1,binding result,[1],binds
B2,Kd,[2],0.49 nM
same,T1/2,[3],37 min
same,binding result,[4],no binding (tested: 75 ng Fab per well)
same,binding result,[5],no binding (tested: 75 ng Fab per well)
same,binding result,[6],no binding (tested: 75 ng Fab per well)
same,binding result,[7],no binding (tested: 75 ng Fab per well)
same,binding result,[8],no binding (tested: 75 ng Fab per well)
B3,"directed T cell lysis of CLL cell lines, EC50",[9],0.00012 nM
same,fold increase in lysis potency compared to RC-1/V9 scFv-Fc,[9],25 fold
same,"fold lower lysis EC50 than CD19/V9 scFv-Fc (MEC1-002, E:T 1:30, 48 h)",[9],~3 fold
same,"fold lower lysis EC50 than RC-1/V9 scFv-Fc (MEC1-002, E:T 1:30, 48 h)",[9],> 10 fold
same,"specific lysis of MEC1-002 cells at E:T 1:30, EC50",[9],0.0011 nM
same,"specific lysis of primary CLL cells by autologous T cells, day 11, median",[9],24.9%
same,"EC50 (read off the curve), NFAT reporter activation with MEC1-002 cells",[10],~0.04 nM
same,Kd,[11],0.79 nM
same,Kd,[12],0.15 nM
same,koff,[12],0.00045 s⁻¹
same,kon,[12],2.96e+06 M⁻¹ s⁻¹
same,EC50 (read off the curve),[13],~0.1 nM
B4,"specific lysis of MEC1-hS6 by healthy donor T cells, EC50",[9],0.0024 nM
same,"specific lysis of primary CLL cells by autologous T cells, day 11, median",[9],8.8%
same,"EC50 (read off the curve), NFAT reporter activation with MEC1-002 cells",[14],~0.08 nM
same,Kd,[15],0.61 nM
same,EC50 (read off the curve),[13],~0.07 nM
B5,"specific lysis of MEC1-hS6 by healthy donor T cells, EC50",[9],0.003 nM
same,"specific lysis of primary CLL cells by autologous T cells, day 11, median",[9],2.4%
same,"EC50 (read off the curve), NFAT reporter activation with MEC1-002 cells",[14],~0.1 nM
same,fold more potent binding than the aDART-Fc,[16],~2 fold
same,Kd,[17],1.1 nM
same,Kd,[12],0.1 nM
same,koff,[12],0.00031 s⁻¹
same,kon,[12],3.05e+06 M⁻¹ s⁻¹
same,EC50 (read off the curve),[13],~0.05 nM
B6,"EC50, lysis of MEC1-hS6 cells by human T cells (E:T 1:1, luciferase)",[18],0.00069 nM
same,Kd,[12],0.07 nM
same,koff,[12],0.0003 s⁻¹
same,kon,[12],4.14e+06 M⁻¹ s⁻¹
same,EC50 (read off the curve),[13],~0.3 nM
B7,Kd,[2],2.76 nM
same,T1/2,[3],27 min
B8,Kd,[19],2.63 nM
same,koff,[19],0.000268 s⁻¹
same,kon,[19],100000 M⁻¹ s⁻¹
same,binding result,[4],no binding (tested: 75 ng Fab per well)
same,binding result,[5],no binding (tested: 75 ng Fab per well)
same,binding result,[20],no binding (tested: 75 ng Fab per well)
same,binding result,[6],no binding (tested: 75 ng Fab per well)
